From the supplement of paper PMC10065799, “High-throughput profiling of sequence recognition by tyrosine kinases and SH2 domains using bacterial peptide display” (eLife, 2023)
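Note: 11-residue human phosphosite peptides and single-mutation variants displayed on the E. coli surface, counted by deep sequencing, each peptide's frequency after selection divided by its frequency in the unselected input library; frequency after pTyr selection over input frequency; kinase dosed for 20-30% of maximal phosphorylation in three min.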

Each sequence was assayed against Hck (UniProt P08631) (assay: phosphorylation enrichment, bacterial display (enrichment ratio); higher = better substrate or ligand; peptides without Tyr show the background).
Hck, sequence (P08631 whole entry, looked up): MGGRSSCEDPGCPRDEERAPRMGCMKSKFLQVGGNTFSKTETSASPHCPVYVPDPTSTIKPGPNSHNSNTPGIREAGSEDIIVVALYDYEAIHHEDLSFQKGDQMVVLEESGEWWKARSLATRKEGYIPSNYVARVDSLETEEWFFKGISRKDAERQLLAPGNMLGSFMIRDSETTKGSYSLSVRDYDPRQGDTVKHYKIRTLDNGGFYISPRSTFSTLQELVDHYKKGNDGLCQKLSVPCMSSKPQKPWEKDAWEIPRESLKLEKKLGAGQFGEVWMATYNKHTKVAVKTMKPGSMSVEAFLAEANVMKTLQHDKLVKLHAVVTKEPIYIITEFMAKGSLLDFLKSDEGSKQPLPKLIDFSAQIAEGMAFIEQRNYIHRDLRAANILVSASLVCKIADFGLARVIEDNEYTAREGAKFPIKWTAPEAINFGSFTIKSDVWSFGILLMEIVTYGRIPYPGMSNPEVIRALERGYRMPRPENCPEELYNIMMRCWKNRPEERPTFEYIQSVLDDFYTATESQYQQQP
LKRIAYFLCLR [LGI1_Y21_L26R] gave a phosphorylation enrichment of 0.37. Work on TLGPFYPSRLF [CRYAA_Y18] yielded a phosphorylation enrichment of 0.428. With EIHTQYEAMAS [GFAP_Y242_R239H] the phosphorylation enrichment was 0.539. DSGKLYALDVL [INO80_Y1104] gave a phosphorylation enrichment of 0.58. KLFFIYTPGTT [SLC27A4_Y245_S247P_YF] showed a phosphorylation enrichment of 0.509. Sequence YGGLRCGYGVL [KRTAP20-2_Y13_Y13C] has a phosphorylation enrichment of 1.5. Sequence NVDGKYSYLKV [GRM3_Y478_G475D] has a phosphorylation enrichment of 0.554. For RVEDACILTCN [CCT6A_Y229_Y229C], the phosphorylation enrichment was 0.751. In the case of TDTAAYEERVR [SPTB_Y474], the phosphorylation enrichment is reported as 0.686. For AEYGLYGAMVR [VSX2_Y222], the phosphorylation enrichment was 6.91. ADYYDYGHGLS [KHDRBS3_Y304] gave a phosphorylation enrichment of 6.46. In the case of YKWAVYCIIGR [NUP93_Y391_R388W], the phosphorylation enrichment is reported as 1.29. YFCRWYRNQKS [EREG_Y144_R147Q] was tested, and the phosphorylation enrichment was 0.372. In the case of GNLQEYLTRHV [TGFBR2_Y336], the phosphorylation enrichment is reported as 0.465. ECIEFYELDKK [PMM2_Y145_R141C] was tested, and the phosphorylation enrichment was 0.572. KDHRDYKYQPR [SOX9_Y172_P170R] showed a phosphorylation enrichment of 0.489.

Each sequence was assayed against Fes (UniProt P07332) in the same assay as above.
Fes, sequence (P07332 whole entry, looked up): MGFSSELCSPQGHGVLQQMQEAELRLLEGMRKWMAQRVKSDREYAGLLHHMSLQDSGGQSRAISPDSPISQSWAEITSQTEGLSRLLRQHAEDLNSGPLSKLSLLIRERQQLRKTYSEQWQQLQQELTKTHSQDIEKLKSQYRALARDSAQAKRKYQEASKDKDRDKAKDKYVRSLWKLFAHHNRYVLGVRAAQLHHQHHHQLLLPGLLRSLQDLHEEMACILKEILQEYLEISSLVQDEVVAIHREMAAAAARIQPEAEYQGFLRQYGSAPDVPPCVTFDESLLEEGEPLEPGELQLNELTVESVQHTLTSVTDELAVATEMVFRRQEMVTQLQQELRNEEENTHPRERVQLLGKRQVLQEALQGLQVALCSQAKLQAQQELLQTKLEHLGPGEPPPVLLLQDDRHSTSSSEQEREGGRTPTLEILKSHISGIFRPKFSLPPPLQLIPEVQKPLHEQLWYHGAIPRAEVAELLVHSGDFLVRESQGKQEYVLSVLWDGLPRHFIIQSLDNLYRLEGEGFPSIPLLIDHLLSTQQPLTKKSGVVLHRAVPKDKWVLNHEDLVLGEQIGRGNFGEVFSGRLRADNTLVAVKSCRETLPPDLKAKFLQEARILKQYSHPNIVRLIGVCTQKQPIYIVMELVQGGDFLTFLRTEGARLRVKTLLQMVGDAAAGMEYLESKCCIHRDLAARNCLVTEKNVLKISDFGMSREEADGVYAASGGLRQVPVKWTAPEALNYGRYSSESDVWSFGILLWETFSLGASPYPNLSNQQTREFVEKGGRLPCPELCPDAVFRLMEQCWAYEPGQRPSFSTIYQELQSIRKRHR
Work on LKRIAYFLCLR [LGI1_Y21_L26R] yielded a phosphorylation enrichment of 1.06. Sequence TLGPFYPSRLF [CRYAA_Y18] has a phosphorylation enrichment of 0.784. In the case of EIHTQYEAMAS [GFAP_Y242_R239H], the phosphorylation enrichment is reported as 0.753. DSGKLYALDVL [INO80_Y1104] was tested, and the phosphorylation enrichment was 0.93. KLFFIYTPGTT [SLC27A4_Y245_S247P_YF] gave a phosphorylation enrichment of 1.49. Sequence YGGLRCGYGVL [KRTAP20-2_Y13_Y13C] has a phosphorylation enrichment of 1.01. NVDGKYSYLKV [GRM3_Y478_G475D] showed a phosphorylation enrichment of 0.878. Sequence RVEDACILTCN [CCT6A_Y229_Y229C] has a phosphorylation enrichment of 1.12. With TDTAAYEERVR [SPTB_Y474] the phosphorylation enrichment was 1.25. AEYGLYGAMVR [VSX2_Y222] gave a phosphorylation enrichment of 0.786. ADYYDYGHGLS [KHDRBS3_Y304] showed a phosphorylation enrichment of 1.11. Work on YKWAVYCIIGR [NUP93_Y391_R388W] yielded a phosphorylation enrichment of 1.48. YFCRWYRNQKS [EREG_Y144_R147Q] showed a phosphorylation enrichment of 0.48. GNLQEYLTRHV [TGFBR2_Y336] showed a phosphorylation enrichment of 0.828. For ECIEFYELDKK [PMM2_Y145_R141C], the phosphorylation enrichment was 1.13. In the case of KDHRDYKYQPR [SOX9_Y172_P170R], the phosphorylation enrichment is reported as 0.864.

Each sequence was assayed on c-Src in the same assay as above.
LKRIAYFLCLR [LGI1_Y21_L26R] gave a phosphorylation enrichment of 0.341. Work on TLGPFYPSRLF [CRYAA_Y18] yielded a phosphorylation enrichment of 0.44. With EIHTQYEAMAS [GFAP_Y242_R239H] the phosphorylation enrichment was 0.383. In the case of DSGKLYALDVL [INO80_Y1104], the phosphorylation enrichment is reported as 1.02. With KLFFIYTPGTT [SLC27A4_Y245_S247P_YF] the phosphorylation enrichment was 0.46. With YGGLRCGYGVL [KRTAP20-2_Y13_Y13C] the phosphorylation enrichment was 1.05. For NVDGKYSYLKV [GRM3_Y478_G475D], the phosphorylation enrichment was 0.432. For RVEDACILTCN [CCT6A_Y229_Y229C], the phosphorylation enrichment was 0.727. In the case of TDTAAYEERVR [SPTB_Y474], the phosphorylation enrichment is reported as 0.753. Work on AEYGLYGAMVR [VSX2_Y222] yielded a phosphorylation enrichment of 5.06. ADYYDYGHGLS [KHDRBS3_Y304] showed a phosphorylation enrichment of 4.65. Work on YKWAVYCIIGR [NUP93_Y391_R388W] yielded a phosphorylation enrichment of 1.18. YFCRWYRNQKS [EREG_Y144_R147Q] gave a phosphorylation enrichment of 0.477. Work on GNLQEYLTRHV [TGFBR2_Y336] yielded a phosphorylation enrichment of 0.363. ECIEFYELDKK [PMM2_Y145_R141C] gave a phosphorylation enrichment of 0.999. KDHRDYKYQPR [SOX9_Y172_P170R] was tested, and the phosphorylation enrichment was 0.426.

Each sequence was assayed against Jak2 (UniProt O60674) in the same assay as above.
Jak2, sequence (O60674 whole entry, looked up): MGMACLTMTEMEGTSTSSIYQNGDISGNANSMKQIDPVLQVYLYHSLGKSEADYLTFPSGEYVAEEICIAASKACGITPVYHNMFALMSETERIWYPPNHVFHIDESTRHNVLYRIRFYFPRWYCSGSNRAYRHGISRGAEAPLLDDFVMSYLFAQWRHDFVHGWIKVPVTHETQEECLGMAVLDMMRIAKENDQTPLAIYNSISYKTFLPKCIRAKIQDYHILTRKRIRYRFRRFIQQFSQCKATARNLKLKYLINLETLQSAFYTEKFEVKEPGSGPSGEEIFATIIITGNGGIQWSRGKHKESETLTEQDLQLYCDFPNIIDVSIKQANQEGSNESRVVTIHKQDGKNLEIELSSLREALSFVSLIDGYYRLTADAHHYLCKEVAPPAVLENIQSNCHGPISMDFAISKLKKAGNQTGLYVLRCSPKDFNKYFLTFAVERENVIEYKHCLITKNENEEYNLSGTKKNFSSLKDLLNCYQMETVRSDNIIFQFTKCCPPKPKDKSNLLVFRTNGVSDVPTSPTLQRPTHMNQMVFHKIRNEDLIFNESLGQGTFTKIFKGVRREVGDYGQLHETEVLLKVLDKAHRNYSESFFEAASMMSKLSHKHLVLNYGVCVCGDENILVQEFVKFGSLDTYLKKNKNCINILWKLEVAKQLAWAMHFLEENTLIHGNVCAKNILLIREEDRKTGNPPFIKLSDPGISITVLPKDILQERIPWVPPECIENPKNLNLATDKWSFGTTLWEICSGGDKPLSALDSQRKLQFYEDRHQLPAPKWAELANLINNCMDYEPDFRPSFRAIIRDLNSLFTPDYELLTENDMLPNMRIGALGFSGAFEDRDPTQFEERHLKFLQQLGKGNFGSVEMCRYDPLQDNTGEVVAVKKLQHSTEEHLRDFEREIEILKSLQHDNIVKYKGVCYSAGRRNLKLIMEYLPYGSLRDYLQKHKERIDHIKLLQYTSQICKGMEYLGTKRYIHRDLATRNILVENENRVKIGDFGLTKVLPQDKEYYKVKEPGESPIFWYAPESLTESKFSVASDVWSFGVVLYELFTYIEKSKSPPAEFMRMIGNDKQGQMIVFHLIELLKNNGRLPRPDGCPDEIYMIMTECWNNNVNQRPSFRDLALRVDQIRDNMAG
LKRIAYFLCLR [LGI1_Y21_L26R] showed a phosphorylation enrichment of 0.949. With TLGPFYPSRLF [CRYAA_Y18] the phosphorylation enrichment was 0.668. With EIHTQYEAMAS [GFAP_Y242_R239H] the phosphorylation enrichment was 0.642. With DSGKLYALDVL [INO80_Y1104] the phosphorylation enrichment was 0.731. Work on KLFFIYTPGTT [SLC27A4_Y245_S247P_YF] yielded a phosphorylation enrichment of 1.45. Work on YGGLRCGYGVL [KRTAP20-2_Y13_Y13C] yielded a phosphorylation enrichment of 0.794. NVDGKYSYLKV [GRM3_Y478_G475D] gave a phosphorylation enrichment of 0.825. In the case of RVEDACILTCN [CCT6A_Y229_Y229C], the phosphorylation enrichment is reported as 1.18. Sequence TDTAAYEERVR [SPTB_Y474] has a phosphorylation enrichment of 1.9. AEYGLYGAMVR [VSX2_Y222] showed a phosphorylation enrichment of 0.675. ADYYDYGHGLS [KHDRBS3_Y304] gave a phosphorylation enrichment of 5.75. YKWAVYCIIGR [NUP93_Y391_R388W] was tested, and the phosphorylation enrichment was 1.08. With YFCRWYRNQKS [EREG_Y144_R147Q] the phosphorylation enrichment was 0.371. GNLQEYLTRHV [TGFBR2_Y336] was tested, and the phosphorylation enrichment was 0.581. ECIEFYELDKK [PMM2_Y145_R141C] showed a phosphorylation enrichment of 0.977. Sequence KDHRDYKYQPR [SOX9_Y172_P170R] has a phosphorylation enrichment of 0.779.
